# PMC314469, “Protein Interaction Networks by Proteome Peptide Scanning” (PLoS Biology, 2004)
# T1: BOI2 SH3 domain (Saccharomyces cerevisiae)
# T1 chain: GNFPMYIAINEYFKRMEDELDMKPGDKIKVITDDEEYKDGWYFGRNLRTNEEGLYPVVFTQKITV
# T2: YFR024C SH3 domain (Saccharomyces cerevisiae)
# T2 chain: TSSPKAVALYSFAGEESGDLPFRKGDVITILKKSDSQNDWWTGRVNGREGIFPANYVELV
# T3: YSC84 SH3 domain (Saccharomyces cerevisiae)
# T3 chain: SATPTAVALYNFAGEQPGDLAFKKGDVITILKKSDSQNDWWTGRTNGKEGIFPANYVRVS
# T4: RVS167 SH3 domain (Saccharomyces cerevisiae)
# T4 chain: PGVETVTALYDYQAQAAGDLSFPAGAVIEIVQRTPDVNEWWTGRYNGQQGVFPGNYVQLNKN
# T5: GST-Abp1 SH3 domain (S. cerevisiae), P15891
# T5 chain: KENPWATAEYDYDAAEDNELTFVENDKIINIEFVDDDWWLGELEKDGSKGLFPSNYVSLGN
# Target: T1, BOI2 SH3 domain (Saccharomyces …)
# Assay: SPR
# Settings: modification not given
row,Binder,Kd
1,RAVPILPPRNNVEP [YBR108W peptide …],> 100 µM
2,DIKTRSVPKIPSIE [DEM1 peptide …],> 100 µM
3,PQQNRPLPQLPNRN,> 100 µM
4,RPLPQLPNRNNRPV,> 100 µM
5,NQPDLPPRKIMIP [YBR239C peptide …],> 100 µM

# Target: T2, YFR024C SH3 domain (Saccharomyces …)
# Assay: SPR
# Settings: modification not given
row,Binder,Kd
1,DIKTRSVPKIPSIE [DEM1 peptide …],> 100 µM
2,RPLPQLPNRNNRPV,8.9 µM
3,NQPDLPPRKIMIP [YBR239C peptide …],22 µM

# Target: T3, YSC84 SH3 domain (Saccharomyces …)
# Assay: SPR
# Settings: modification not given
row,Binder,Kd
1,RAVPILPPRNNVEP [YBR108W peptide …],13 µM
2,DIKTRSVPKIPSIE [DEM1 peptide …],> 100 µM
3,RPLPQLPNRNNRPV,9.6 µM
4,NQPDLPPRKIMIP [YBR239C peptide …],16 µM

# Target: T4, RVS167 SH3 domain (Saccharomyces …)
# Assay: SPR
# Settings: modification not given
row,Binder,Kd
1,RAVPILPPRNNVEP [YBR108W peptide …],39 µM
2,DIKTRSVPKIPSIE [DEM1 peptide …],> 100 µM
3,PQQNRPLPQLPNRN,32 µM
4,NQPDLPPRKIMIP [YBR239C peptide …],39 µM

# Target: T5, GST-Abp1 SH3 domain (S. cerevisiae), …
# Assay: SPR
# Settings: modification not given
row,Binder,Kd
1,ASTKPEKPPVVKKP [INP52 peptide …],> 100 µM
2,RPLPQLPNRNNRPV,> 100 µM
3,NQPDLPPRKIMIP [YBR239C peptide …],> 100 µM
